From PMC9531947, “Targeting A-kinase anchoring protein 12 phosphorylation in hepatic stellate cells regulates liver injury and fibrosis in mouse models” (eLife, 2022)

Biological target: T1, AKAP12 with its five activation-responsive phospho-sites deleted by CRISPR-directed HDR, human HSCs (human (endogenous locus in primary …, UniProt Q02952-1 1-1782, deletion of the five phospho-sites T675, S676, S678, S687, S688 (PDEL; limits …)
T1 construct: human AKAP12 with the region of the phospho-sites T675, S676, S678, S687, S688 deleted; The transfected cells are a mixture of edited and unedited cells; the co-precipitate with the AKAP12 antibody holds both forms; also called CRISPR-edited AKAP12; PDEL (human); source: in cell extract and fixed cells
T1 sequence (Q02952 other isoform, or with tags, fused parts or gaps with the stated changes): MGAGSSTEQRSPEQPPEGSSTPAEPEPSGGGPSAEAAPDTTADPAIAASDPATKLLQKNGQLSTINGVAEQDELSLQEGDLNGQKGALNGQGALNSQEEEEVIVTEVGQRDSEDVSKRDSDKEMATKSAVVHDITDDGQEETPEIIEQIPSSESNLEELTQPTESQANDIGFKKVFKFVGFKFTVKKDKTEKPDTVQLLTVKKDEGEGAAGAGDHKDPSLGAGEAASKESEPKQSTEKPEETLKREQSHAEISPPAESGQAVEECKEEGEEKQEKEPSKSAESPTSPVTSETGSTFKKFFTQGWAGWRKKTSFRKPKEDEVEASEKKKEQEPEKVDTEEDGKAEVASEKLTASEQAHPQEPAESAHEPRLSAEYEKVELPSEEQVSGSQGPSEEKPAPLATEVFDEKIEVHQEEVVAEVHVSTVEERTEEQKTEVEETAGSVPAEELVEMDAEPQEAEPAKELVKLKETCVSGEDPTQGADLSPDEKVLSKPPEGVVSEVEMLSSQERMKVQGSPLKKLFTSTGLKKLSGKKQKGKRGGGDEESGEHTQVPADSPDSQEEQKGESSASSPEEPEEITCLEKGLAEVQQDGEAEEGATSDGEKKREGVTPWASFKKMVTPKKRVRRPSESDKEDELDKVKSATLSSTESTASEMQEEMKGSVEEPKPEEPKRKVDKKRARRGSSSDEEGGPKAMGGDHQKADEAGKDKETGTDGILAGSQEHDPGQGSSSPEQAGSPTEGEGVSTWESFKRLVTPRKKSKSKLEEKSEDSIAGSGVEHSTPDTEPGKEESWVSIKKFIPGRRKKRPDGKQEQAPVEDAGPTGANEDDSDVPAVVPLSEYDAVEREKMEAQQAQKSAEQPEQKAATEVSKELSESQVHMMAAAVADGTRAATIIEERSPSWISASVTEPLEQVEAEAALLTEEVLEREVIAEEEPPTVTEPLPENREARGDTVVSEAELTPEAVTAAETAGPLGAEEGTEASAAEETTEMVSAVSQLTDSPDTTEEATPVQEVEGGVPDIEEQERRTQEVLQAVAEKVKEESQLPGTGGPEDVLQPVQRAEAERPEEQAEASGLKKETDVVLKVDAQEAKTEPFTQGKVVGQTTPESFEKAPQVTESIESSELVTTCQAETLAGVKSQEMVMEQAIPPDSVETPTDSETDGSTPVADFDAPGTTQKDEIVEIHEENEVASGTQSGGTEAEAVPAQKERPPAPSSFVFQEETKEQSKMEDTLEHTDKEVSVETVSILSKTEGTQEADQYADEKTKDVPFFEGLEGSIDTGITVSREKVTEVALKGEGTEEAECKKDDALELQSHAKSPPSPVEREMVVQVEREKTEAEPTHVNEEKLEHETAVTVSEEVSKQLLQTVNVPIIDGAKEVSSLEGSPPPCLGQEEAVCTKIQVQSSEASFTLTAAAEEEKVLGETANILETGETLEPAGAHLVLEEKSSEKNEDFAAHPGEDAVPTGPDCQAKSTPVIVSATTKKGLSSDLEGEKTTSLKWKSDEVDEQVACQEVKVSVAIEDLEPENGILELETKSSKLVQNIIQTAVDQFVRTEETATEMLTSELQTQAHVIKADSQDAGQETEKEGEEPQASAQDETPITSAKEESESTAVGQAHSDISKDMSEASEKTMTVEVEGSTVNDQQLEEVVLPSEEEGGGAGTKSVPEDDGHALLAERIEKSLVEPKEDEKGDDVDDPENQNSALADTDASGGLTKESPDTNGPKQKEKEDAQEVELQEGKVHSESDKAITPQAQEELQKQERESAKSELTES
Assay: co-IP; extracts of primary human HSCs (cultured 0, 3 or 6 days; WT or CRISPR-edited HDR cells; negative control or Prkca siRNA A or B); AKAP12-HSP47 co-immunoprecipitation and western blot
Settings: partners not purified

fold change of the AKAP12-HSP47 co-immunoprecipitate against WT cells: 2.5 fold
B1: heat-shock protein 47 (HSP47), human, endogenous (natural protein, UniProt P50454 19-418, looked up)
chain: AEVKKPAAAAAPGTAEKLSPKAATLAERSAGLAFSLYQAMAKDQAVENILVSPVVVASSLGLVSLGGKATTASQAKAVLSAEQLRDEEVHAGLGELLRSLSNSTARNVTWKLGSRLYGPSSVSFADDFVRSSKQHYNCEHSKINFRDKRSALQSINEWAAQTTDGKLPEVTKDVERTDGALLVNAMFFKPHWDEKFHHKMVDNRGFMVTRSYTVGVMMMHRTGLYNYYDDEKEKLQIVEMPLAHKLSSLIILMPHHVEPLERLEKLLTKEQLKIWMGKMQKKAVAISLPKGVVEVTHDLQKHLAGLGLTEAIDKNKADLSRMSGKKDLYLASVFHATAFELDTDGNPFDQDIYGREELRSPKLFYADHPFIFLVRDTQSGSLLFIGRLVRPKGDKMRDEL
notes: heat-shock protein 47 (HSP47), ER-resident collagen chaperone, human, endogenous in primary HSCs and liver tissue; source: endogenous, primary human HSC extracts and fixed cells; human liver tissue array
